# Where a SMILES comes first, the peptide text is derived from it. Bridges are numbered along the chain shown (N, C = ends). Roman numbers before positions name the chains, in order.
# How the values were obtained:
# G-CSFR [1] = biological target: T1, G-CSFR (Homo sapiens, UniProt Q99062); assay: Specific binding of peptides to G-CSFR; settings: total minus non-specific binding; unlabeled ligand typically G-CSF variant CS17
# T1 construct: incubation with soluble G-CSFR harvest; made in house
# T1 sequence (Q99062 25-627): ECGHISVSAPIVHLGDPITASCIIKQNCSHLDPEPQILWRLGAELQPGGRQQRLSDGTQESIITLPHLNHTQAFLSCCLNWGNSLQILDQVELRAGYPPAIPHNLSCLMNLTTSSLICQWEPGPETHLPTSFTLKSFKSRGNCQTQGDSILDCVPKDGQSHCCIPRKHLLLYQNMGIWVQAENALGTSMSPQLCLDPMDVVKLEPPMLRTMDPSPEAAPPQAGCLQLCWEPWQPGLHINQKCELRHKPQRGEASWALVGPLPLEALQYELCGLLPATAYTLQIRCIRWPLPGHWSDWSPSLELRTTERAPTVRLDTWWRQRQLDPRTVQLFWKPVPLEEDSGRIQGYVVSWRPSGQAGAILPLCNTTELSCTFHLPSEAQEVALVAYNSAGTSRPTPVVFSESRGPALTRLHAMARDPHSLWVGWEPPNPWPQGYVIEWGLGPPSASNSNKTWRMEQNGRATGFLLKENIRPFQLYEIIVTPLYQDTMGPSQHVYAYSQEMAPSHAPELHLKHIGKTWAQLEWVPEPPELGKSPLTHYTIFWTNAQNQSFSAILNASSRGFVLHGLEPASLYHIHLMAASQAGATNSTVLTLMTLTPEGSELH
# From the text: Specific binding is binding of a ligand to a specific receptor, as opposed to non-specific binding that is mediated by non-specific interactions. Specific binding may be measured by subtraction of the non-specific binding (measured in the presence of saturating concentrations of unlabeled ligand) from the total binding (measured in the absence of saturating amounts of ligand). Typically, the unlabeled ligand used was a variant of G-CSF in which the cysteine normally found at position 17 was converted to serine (CS17).
# G-CSFR [2] = biological target: T2, G-CSFR (Homo sapiens, UniProt Q99062); assay: G-CSF competition binding assay (125I labeled G-CSF, immobilized G-CSFR in microtiter wells); parameters: made in house; settings: reduction of bound 125I labeled G-CSF; overnight at 4° C.
# T2 sequence (Q99062 25-836): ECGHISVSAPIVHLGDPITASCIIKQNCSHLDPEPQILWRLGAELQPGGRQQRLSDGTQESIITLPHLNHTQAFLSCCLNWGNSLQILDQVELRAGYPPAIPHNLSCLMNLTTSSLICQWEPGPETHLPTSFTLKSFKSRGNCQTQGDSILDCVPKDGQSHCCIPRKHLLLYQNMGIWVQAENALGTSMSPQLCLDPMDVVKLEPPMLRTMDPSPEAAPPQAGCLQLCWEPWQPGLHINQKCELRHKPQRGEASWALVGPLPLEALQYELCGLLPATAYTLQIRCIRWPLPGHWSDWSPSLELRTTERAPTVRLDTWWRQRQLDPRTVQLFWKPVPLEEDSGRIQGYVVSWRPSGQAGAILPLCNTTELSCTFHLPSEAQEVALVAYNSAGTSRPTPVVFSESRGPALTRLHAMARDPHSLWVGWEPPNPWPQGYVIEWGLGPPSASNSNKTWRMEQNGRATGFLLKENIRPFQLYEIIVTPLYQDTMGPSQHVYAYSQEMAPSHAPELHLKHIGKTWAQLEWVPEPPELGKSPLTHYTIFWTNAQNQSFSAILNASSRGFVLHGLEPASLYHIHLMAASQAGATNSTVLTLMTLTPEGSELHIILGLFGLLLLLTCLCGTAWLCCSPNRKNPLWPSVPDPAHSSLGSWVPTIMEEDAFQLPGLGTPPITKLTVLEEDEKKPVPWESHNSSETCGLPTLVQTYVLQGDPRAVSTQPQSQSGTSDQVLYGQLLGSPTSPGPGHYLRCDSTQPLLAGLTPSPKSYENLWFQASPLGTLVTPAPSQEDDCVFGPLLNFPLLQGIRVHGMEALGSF
# Procedure: Determination of competitive binding was also carried out for a number of peptides. Briefly stated, G-CSFR was purified using standard techniques. The receptor was then immobilized in microtiter plate wells that were coated with acid-treated antibody (A b179) specific for a site on G-CSFR not involved with G-CSF binding. Separately, ^125I was coupled to the natural ligand G-CSF using techniques well known in the art. Test peptides were added to receptor-coated wells and allowed to bind to immobilized receptor for approximately 30 minutes. ^125 labeled G-CSF was then introduced to the wells and incubated overnight at 4°C. Unbound ^125I labeled G-CSF was removed by washing the plate several times followed by measuring the amount of radioactivity that remained in each well using conventional techniques. […] Alternatively, if reduced amounts or no ^125I labeled G-CSF was detected, the peptide did compete.
# G-CSFR [3] = biological target: T1, G-CSFR; assay: G-CSF radioligand binding assay (SPA beads, 125I labeled G-CSF); settings: reduction by 50% of 125I labeled G-CSF bound to immobilized G-CSFR; overnight at 4° C.
# Procedure: Streptavidin-coated scintillation proximity assay (SPA) beads (Amersham) were mixed with biotinylated anti-receptor immobilizing antibody (Ab179) followed by incubation with soluble G-CSFR harvest. Receptor-coated SPA beads were washed twice in PBS/0.1% BSA and distributed to wells of a white polystyrene 96-well microtiter plate (Packard). Serial dilutions of peptide or peptide mimetic were mixed with a constant amount of ^125I labeled G-CSF (10^5 cpm; 1290 Ci/mmol) in PBS/0.1% BSA, added to wells containing receptor-coated SPA beads, and incubated overnight at 4° C. The binding of radiolabeled G-CSF to the receptor-coated SPA bead brings the isotope in close proximity to the scintillant, which allows the emitted radiation to stimulate the scintillant to emit light. […] The amount of ^125I labeled G-CSF that was bound at equilibrium was measured by counting the plate in a TopCount (Wallac) microtiter plate luminometer. […] One can determine the concentration at which the peptide or peptide mimetic will reduce by 50% (IC50) the amount of ^125I labeled G-CSF bound to immobilized G-CSFR.
Specific Binding? (G-CSFR [1]),Competitive Binding? (G-CSFR [2]),IC50 (G-CSFR [3]) [µM],Compound
,,> 200,"Ac-ESGWVW-NH2 [Example 42, Ac-ESGWVW-CONH2]"
,,> 200,N=C(N)NCCC[C@H](NC(=O)[C@H](CCC(=O)O)NC(=O)[C@H](CO)NC(=O)[C@H](CC(N)=O)NC(=O)[C@H](CO)NC(=O)[C@@H](N)CCC(N)=O)C(=O)N[C@@H](CCC(=O)O)C(=O)N[C@@H](Cc1c[nH]c2ccccc12)C(=O)N[C@@H](Cc1ccccc1)C(=O)N[C@@H](CSSC[C@H](NC(=O)[C@H](Cc1ccccc1)NC(=O)[C@H](Cc1c[nH]c2ccccc12)NC(=O)[C@H](CCC(=O)O)NC(=O)[C@H](CCCNC(=N)N)NC(=O)[C@H](CCC(=O)O)NC(=O)[C@H](CO)NC(=O)[C@H](CC(N)=O)NC(=O)[C@H](CO)NC(=O)[C@@H](N)CCC(N)=O)C(N)=O)C(N)=O [Example 39] (I: H-QSNSEREWFC-NH2 / II: H-QSNSEREWFC-NH2; disulfide I:10-II:10)
,,0.5 to 200,"H-EQSNSGWVWVGGGGC-NH2 [Example 45, NH2-EQSNSGWVWVGGGGC-CONH2]"
,,> 200,"H-QSNSEREWFC-NH2 [Example 38, NH2-QSNSEREWFC-CONH2]"
,,> 200,"H-QSNSEREWFCG-NH2 [Example 40, NH2-QSNSEREWFCG-CONH2]"
,,> 200,"Ac-NSGWVW-NH2 [Example 43, Ac-NSGWVW-CONH2]"
,,0.5 to 200,CC(C)C[C@H](NC(=O)[C@H](CCCNC(=N)N)NC(=O)[C@H](CCC(=O)O)NC(=O)[C@H](C)NC(=O)[C@@H](NC(=O)[C@@H](N)CO)[C@@H](C)O)C(=O)N[C@@H](Cc1c[nH]c2ccccc12)C(=O)N[C@@H](Cc1ccccc1)C(=O)N[C@@H](CSSC[C@H](NC(=O)[C@H](Cc1ccccc1)NC(=O)[C@H](Cc1c[nH]c2ccccc12)NC(=O)[C@H](CC(C)C)NC(=O)[C@H](CCCNC(=N)N)NC(=O)[C@H](CCC(=O)O)NC(=O)[C@H](C)NC(=O)[C@@H](NC(=O)[C@@H](N)CO)[C@@H](C)O)C(=O)NCC(N)=O)C(=O)NCC(N)=O [Example 37] (I: H-STAERLWFCG-NH2 / II: H-STAERLWFCG-NH2; disulfide I:9-II:9)
,,> 200,N=C(N)NCCC[C@H](NC(=O)[C@H](CCC(=O)O)NC(=O)[C@H](CO)NC(=O)[C@H](CC(N)=O)NC(=O)[C@H](CO)NC(=O)[C@@H](N)CCC(N)=O)C(=O)N[C@@H](CCC(=O)O)C(=O)N[C@@H](Cc1c[nH]c2ccccc12)C(=O)N[C@@H](Cc1ccccc1)C(=O)N[C@@H](CSSC[C@H](NC(=O)[C@H](Cc1ccccc1)NC(=O)[C@H](Cc1c[nH]c2ccccc12)NC(=O)[C@H](CCC(=O)O)NC(=O)[C@H](CCCNC(=N)N)NC(=O)[C@H](CCC(=O)O)NC(=O)[C@H](CO)NC(=O)[C@H](CC(N)=O)NC(=O)[C@H](CO)NC(=O)[C@@H](N)CCC(N)=O)C(=O)NCC(N)=O)C(=O)NCC(N)=O [Example 41] (I: H-QSNSEREWFCG-NH2 / II: H-QSNSEREWFCG-NH2; disulfide I:10-II:10)
,,> 200,H-KSTGGLTAERDAEKRRWLLTHGGE-OH [Example 66]
,,0.5 to 200,CC(C)[C@H](NC(=O)[C@H](Cc1c[nH]c2ccccc12)NC(=O)[C@@H](NC(=O)[C@H](Cc1c[nH]c2ccccc12)NC(=O)CNC(=O)[C@H](CO)NC(=O)[C@H](CC(N)=O)NC(=O)[C@H](CO)NC(=O)[C@H](CCC(N)=O)NC(=O)[C@@H](N)CCC(=O)O)C(C)C)C(=O)NCC(=O)NCC(=O)NCC(=O)NCC(=O)N[C@@H](CSSC[C@H](NC(=O)CNC(=O)CNC(=O)CNC(=O)CNC(=O)[C@@H](NC(=O)[C@H](Cc1c[nH]c2ccccc12)NC(=O)[C@@H](NC(=O)[C@H](Cc1c[nH]c2ccccc12)NC(=O)CNC(=O)[C@H](CO)NC(=O)[C@H](CC(N)=O)NC(=O)[C@H](CO)NC(=O)[C@H](CCC(N)=O)NC(=O)[C@@H](N)CCC(=O)O)C(C)C)C(C)C)C(N)=O)C(N)=O [Example 46] (I: H-EQSNSGWVWVGGGGC-NH2 / II: H-EQSNSGWVWVGGGGC-NH2; disulfide I:15-II:15)

# More lines, now with the values behind:
Compound,Specific Binding? (G-CSFR [1]),Competitive Binding? (G-CSFR [2]),IC50 (G-CSFR [3]) [µM]
CPHWTSYYMC [Example 13],Yes,Yes,
CNREIEAMCC [Example 2],Yes,Yes,
CPDWYQSYMC [Example 12],Yes,Yes,
CETLCGACFC [Example 15],No,No,
CACMLRVVHC [Example 14],Yes,Yes,
"H-STAERLWFCG-NH2 [Example 36, NH2-STAERLWFCG-CONH2]",,,> 200
CHANPVWGEC [Example 9],No,No,
CFWSDWGQTC [Example 11],No,No,
CVPWMFYDLC [Example 6],Yes,No,
CDPWMFYDLC [Example 7],Yes,No,
CADEVMHFCC [Example 3],Yes,Yes,
CAGEVMHMCC [Example 1],Yes,Yes,
CDVWQLFDRC [Example 4],Yes,Yes,
"H-EQSNSGWVWV-NH2 [Example 35, NH2-EQSNSGWVWV-CONH2]",,,0.5 to 200
CQRAGYMLAC [Example 8],No,No,
CSFVQLNSIC [Example 5],Yes,Yes,
